Reference: patent US20220227882A1 (TRUSTEES OF TUFTS COLLEGE, published 2022)
Substitutions are numbered along the chain they refer to.

How the values were obtained:
Q447A = molecular target: T1, Q447A (Homo sapiens, UniProt P78325); test: high-throughput flow cytometry, HEK293 cells with mutant ADAM8, high stringency; range in parentheses
T1 construct: expressed on HEK293 cells; also called human ADAM8 point mutant Q447A
T1 sequence (ADAM8, looked up): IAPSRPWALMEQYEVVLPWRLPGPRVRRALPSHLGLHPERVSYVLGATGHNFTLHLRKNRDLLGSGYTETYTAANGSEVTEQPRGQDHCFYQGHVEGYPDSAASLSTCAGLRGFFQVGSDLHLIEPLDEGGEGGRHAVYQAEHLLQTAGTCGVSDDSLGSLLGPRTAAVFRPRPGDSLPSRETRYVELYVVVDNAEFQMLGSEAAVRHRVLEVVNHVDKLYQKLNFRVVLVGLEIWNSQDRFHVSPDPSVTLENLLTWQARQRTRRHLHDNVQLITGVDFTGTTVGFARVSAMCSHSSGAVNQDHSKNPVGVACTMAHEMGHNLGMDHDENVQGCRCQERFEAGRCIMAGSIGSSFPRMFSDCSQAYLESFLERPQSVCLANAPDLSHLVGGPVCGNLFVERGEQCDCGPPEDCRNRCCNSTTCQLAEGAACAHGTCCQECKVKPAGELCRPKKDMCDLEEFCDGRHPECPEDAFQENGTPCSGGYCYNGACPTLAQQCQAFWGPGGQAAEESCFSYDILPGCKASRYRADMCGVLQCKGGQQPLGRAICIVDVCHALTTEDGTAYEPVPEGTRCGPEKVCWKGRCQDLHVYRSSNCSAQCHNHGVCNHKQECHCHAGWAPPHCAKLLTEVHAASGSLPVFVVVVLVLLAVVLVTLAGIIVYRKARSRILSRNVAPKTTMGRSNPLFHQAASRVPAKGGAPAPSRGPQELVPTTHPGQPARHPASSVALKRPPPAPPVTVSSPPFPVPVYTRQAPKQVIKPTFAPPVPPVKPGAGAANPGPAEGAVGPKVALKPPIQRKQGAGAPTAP
Experimental: (§1) A variety of experimental parameters were optimized for high-throughput flow cytometry including blocking buffer, and primary and secondary antibody concentrations, to identify the optimal conditions for screening. Through these studies ADP2 and ADP13 were determined to be high affinity binding antibodies.
(§2) Thus, for these studies antigen-binding fragments (Fabs) of ADP2 and ADP13, which bind with lower affinity than the full antibody, were generated. In addition, higher binding stringency conditions were tested, such as increased pH, salinity, and temperature, and/or increased washing, to weaken binding sufficiently to allow identification of critical binding residues in flow cytometry. The final experimental flow cytometry conditions were: primary antibody incubation with ADP2 Fab (0.50 μg/ml), ADP13 Fab (5.00 μg/ml) and Control Ab (0.16 μg/ml) for 60 minutes in flow cytometry buffer containing 10% goat serum in PBS (Ca²⁺ and Mg²⁺ free). […] Samples were washed three times after primary antibody incubation and twice after secondary antibody incubation with PBS (Ca²⁺ and Mg′ free). Next, HEK293 cells expressing WT or mutated ADAM8 proteins or EV DNA were incubated with ADP2 or ADP13 Fabs or Control Ab at their optimal concentrations. Fab binding was detected using Alexa Fluor 488-conjugated secondary antibodies and mean cellular fluorescence determined using the Intellicyt iQue flow cytometry platform. […] This counter-screen strategy facilitates the exclusion of mutants that are locally misfolded or that have an expression defect. Binding of each test Fab to each mutant clone in the alanine scanning library was determined, in duplicate, by high-throughput flow cytometry.

R482A = molecular target: T2, R482A (Homo sapiens, UniProt P78325); test: as above
T2 construct: expressed on HEK293 cells; also called human ADAM8 point mutant R482A
T2 sequence (ADAM8, looked up): T1 sequence (ADAM8, looked up) with A431Q, R466A
Experimental: as §1, §2

B1: ADP2 Fab (Fab, V domains shown)
VH: EVKLVESGGGLVQPGGSLSLSCAASGFSFPDYYMSWVRQPPGKALEWLGFIRDSANGYTTEYIASVKGRFTFSRDNSQSILYLQMNALRAEDSATYYCARYSRYYGMDYWGQGTSVTVSS
VL: SIVMTQTPKILLVSAGDRVTITCKASQTVNYDVAWYQQKPGQSPKPVIYFASNRYTGVPDRFTGSGFGTDFTFTISTVQAEDLAVYFCQQDYSAPWTFGGGTKLEIK
**Q.** For B1, which “Binding Reactivity (% WT)” value (Q447A) is on record?
**A.** 46.5 % WT

**Q.** What about the “Binding Reactivity (% WT)” value (R482A) of the same binder?
**A.** 113 % WT
